Measurements from article PMC2789033.

Experiments:
[1] = target: F5/8C module of LamA (Paenibacillus β-1,3-glucanase), residues 1636-1793 (Paenibacillus sp. BCRC 17245); assay: SEC; Sephacryl S-300 gel filtration column (Hiprep 16/60), 10 mM sodium acetate pH 5.8, 10% glycerol; monomer to dimer
[2] = target: F5/8C module of LamA (Paenibacillus β-1,3-glucanase), residues 1636-1793 (Paenibacillus sp. BCRC 17245); assay: AUC; sedimentation velocity, 20°C, 42000 rpm, protein 0.17 mg/mL in 10 mM phosphate pH 7.0, 10% glycerol; c(s) by Sedfit94; monomer to dimer
[3] = target: F5/8C module of LamA (Paenibacillus β-1,3-glucanase), residues 1636-1793 (Paenibacillus sp. BCRC 17245); assay: cross-linking; protein 0.65 mg/mL, 0.05% glutaraldehyde, room temperature, 1 h, 12% SDS-PAGE

F5/8C module of LamA (Paenibacillus β-1,3-glucanase), residues 1636-1793 (domain or fragment)
dimer fraction [1]: 15% | stoichiometry N [1]: 2 | dimer fraction [2]: 15% | stoichiometry N [2]: 2 | stoichiometry N [3]: 2
